Experiments:
HeLa Kyoto [1] = test: solubility in G1/S (NP-40 vs SDS abundance) (log2 ratio); higher = more soluble; settings: cell cycle stage: G1/S
HeLa Kyoto [2] = test: solubility change mitosis vs G1/S (difference of NP-40 vs SDS log2 ratios) (log2 ratio difference); higher = more soluble in mitosis
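Throughout, for solubility change mitosis vs G1/S (difference of NP-40 vs SDS log2 ratios): synchronized HeLa Kyoto cells (double thymidine block for G1/S, nocodazole release for mitosis), protein amounts in NP-40 versus SDS lysates quantified by mass spectrometry, three biological replicates.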
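Throughout, for solubility in G1/S (NP-40 vs SDS abundance): HeLa Kyoto cells arrested at G1/S by double thymidine block, proteins quantified by TMT10plex mass spectrometry in mild NP-40 versus SDS extracts, three biological replicates.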

Sequence	solubility in G1/S (log2) (HeLa Kyoto [1])	solubility change mitosis (log2) (HeLa Kyoto [2])
MGFWCRMSENQEQEEVITVRVQDPRVQNEGSWNSYVDYKIFLHTNSKAFTAKTSCVRRRYREFVWLRKQLQRNAGLVPVPELPGKSTFFGTSDEFIEKRRQGLQHFLEKVLQSVVLLSDSQLHLFLQSQLSVPEIEACVQGRSTMTVSDAILRYAMSNCGWAQEERQSSSHLAKGDQPKSCCFLPRSGRRSSPSPPPSEEKDHLEVWAPVVDSEVPSLESPTLPPLSSPLCCDFGRPKEGTSTLQSVRRAVGGDHAVPLDPGQLETVLEK [SNX11]	0.38	-0.17
MGIWQRLLLFGGVSLRAGGGATAPLGGSRAMVCGRQLSGAGSETLKQRRTQIMSRGLPKQKPIEGVKQVIVVASGKGGVGKSTTAVNLALALAANDSSKAIGLLDVDVYGPSVPKMMNLKGNPELSQSNLMRPLLNYGIACMSMGFLVEESEPVVWRGLMVMSAIEKLLRQVDWGQLDYLVVDMPPGTGDVQLSVSQNIPITGAVIVSTPQDIALMDAHKGAEMFRRVHVPVLGLVQNMSVFQCPKCKHKTHIFGADGARKLAQTLGLEVLGDIPLHLNIREASDTGQPIVFSQPESDEAKAYLRIAVEVVRRLPSPSE [NUBPL]	0.45	0.138
MGKAKVPASKRAPSSPVAKPGPVKTLTRKKNKKKKRFWKSKAREVSKKPASGPGAVVRPPKAPEDFSQNWKALQEWLLKQKSQAPEKPLVISQMGSKKKPKIIQQNKKETSPQVKGEEMPAGKDQEASRGSVPSGSKMDRRAPVPRTKASGTEHNKKGTKERTNGDIVPERGDIEHKKRKAKEAAPAPPTEEDIWFDDVDPADIEAAIGPEAAKIARKQLGQSEGSVSLSLVKEQAFGGLTRALALDCEMVGVGPKGEESMAARVSIVNQYGKCVYDKYVKPTEPVTDYRTAVSGIRPENLKQGEELEVVQKEVAEMLKGRILVGHALHNDLKVLFLDHPKKKIRDTQKYKPFKSQVKSGRPSLRLLSEKILGLQVQQAEHCSIQDAQAAMRLYVMVKKEWESMARDRRPLLTAPDHCSDDA [REXO4]	-0.936	0.875
MGKSCKVVVCGQASVGKTSILEQLLYGNHVVGSEMIETQEDIYVGSIETDRGVREQVRFYDTRGLRDGAELPRHCFSCTDGYVLVYSTDSRESFQRVELLKKEIDKSKDKKEVTIVVLGNKCDLQEQRRVDPDVAQHWAKSEKVKLWEVSVADRRSLLEPFVYLASKMTQPQSKSAFPLSRKNKGSGSLDG [NKIRAS2]	-0.133	-0.0114
MGLSTVPDLLLPLVLLELLVGIYPSGVIGLVPHLGDREKRDSVCPQGKYIHPQNNSICCTKCHKGTYLYNDCPGPGQDTDCRECESGSFTASENHLRHCLSCSKCRKEMGQVEISSCTVDRDTVCGCRKNQYRHYWSENLFQCFNCSLCLNGTVHLSCQEKQNTVCTCHAGFFLRENECVSCSNCKKSLECTKLCLPQIENVKGTEDSGTTVLLPLVIFFGLCLLSLLFIGLMYRYQRWKSKLYSIVCGKSTPEKEGELEGTTTKPLAPNPSFSPTPGFTPTLGFSPVPSSTFTSSSTYTPGDCPNFAAPRREVAPPYQGADPILATALASDPIPNPLQKWEDSAHKPQSLDTDDPATLYAVVENVPPLRWKEFVRRLGLSDHEIDRLELQNGRCLREAQYSMLATWRRRTPRREATLELLGRVLRDMDLLGCLEDIEEALCGPAALPPAPSLLR [TNFRSF1A]	-0.165	-0.132
MGNTTTKFRKALINGDENLACQIYENNPQLKESLDPNTSYGEPYQHNTPLHYAARHGMNKILGTFLGRDGNPNKRNVHNETSMHLLCMGPQIMISEGALHPRLARPTEDDFRRADCLQMILKWKGAKLDQGEYERAAIDAVDNKKNTPLHYAAASGMKACVELLVKHGGDLFAENENKDTPCDCAEKQHHKDLALNLESQMVFSRDPEAEEIEAEYAALDKREPYEGLRPQDLRRLKDMLIVETADMLQAPLFTAEALLRAHDWDREKLLEAWMSNPENCCQRSGVQMPTPPPSGYNAWDTLPSPRTPRTTRSSVTSPDEISLSPGDLDTSLCDICMCSISVFEDPVDMPCGHDFCRGCWESFLNLKIQEGEAHNIFCPAYDCFQLVPVDIIESVVSKEMDKRYLQFDIKAFVENNPAIKWCPTPGCDRAVRLTKQGSNTSGSDTLSFPLLRAPAVDCGKGHLFCWECLGEAHEPCDCQTWKNWLQKITEMKPEELVGVSEAYEDAANCLWLLTNSKPCANCKSPIQKNEGCNHMQCAKCKYDFCWICLEEWKKHSSSTGGYYRCTRYEVIQHVEEQSKEMTVEAEKKHKRFQELDRFMHYYTRFKNHEHSYQLEQRLLKTAKEKMEQLSRALKETEGGCPDTTFIEDAVHVLLKTRRILKCSYPYGFFLEPKSTKKEIFELMQTDLEMVTEDLAQKVNRPYLRTPRHKIIKAACLVQQKRQEFLASVARGVAPADSPEAPRRSFAGGTWDWEYLGFASPEEYAEFQYRRRHRQRRRGDVHSLLSNPPDPDEPSESTLDIPEGGSSSRRPGTSVVSSASMSVLHSSSLRDYTPASRSENQDSLQALSSLDEDDPNILLAIQLSLQESGLALDEETRDFLSNEASLGAIGTSLPSRLDSVPRNTDSPRAALSSSELLELGDSLMRLGAENDPFSTDTLSSHPLSEARSDFCPSSSDPDSAGQDPNINDNLLGNIMAWFHDMNPQSIALIPPATTEISADSQLPCIKDGSEGVKDVELVLPEDSMFEDASVSEGRGTQIEENPLEENILAGEAASQAGDSGNEAANRGDGSDVSSQTPQTSSDWLEQVHLV [ANKIB1]	0.00548	-0.221
MGPGGPLLSPSRGFLLCKTGWHSNRLLGDCGPHTPVSTALSFIAVGMAAPSMKERQVCWGARDEYWKCLDENLEDASQCKKLRSSFESSCPQQWIKYFDKRRDYLKFKEKFEAGQFEPSETTAKS [COA6]	-0.656	0.327
MGRAVKVLQLFKTLHRTRQQVFKNDARALEAARIKINEEFKNNKSETSSKKIEELMKIGSDVELLLRTSVIQGIHTDHNTLKLVPRKDLLVENVPYCDAPTQKQ [LYRM7]	0.581	0.302
MGRKKIQIQRITDERNRQVTFTKRKFGLMKKAYELSVLCDCEIALIIFNHSNKLFQYASTDMDKVLLKYTEYNEPHESRTNADIIETLRKKGFNGCDSPEPDGEDSLEQSPLLEDKYRRASEELDGLFRRYGSTVPAPNFAMPVTVPVSNQSSLQFSNPSGSLVTPSLVTSSLTDPRLLSPQQPALQRNSVSPGLPQRPASAGAMLGGDLNSANGACPSPVGNGYVSARASPGLLPVANGNSLNKVIPAKSPPPPTHSTQLGAPSRKPDLRVITSQAGKGLMHHLTEDHLDLNNAQRLGVSQSTHSLTTPVVSVATPSLLSQGLPFSSMPTAYNTDYQLTSAELSSLPAFSSPGGLSLGNVTAWQQPQQPQQPQQPQPPQQQPPQPQQPQPQQPQQPQQPPQQQSHLVPVSLSNLIPGSPLPHVGAALTVTTHPHISIKSEPVSPSRERSPAPPPPAVFPAARPEPGDGLSSPAGGSYETGDRDDGRGDFGPTLGLLRPAPEPEAEGSAVKRMRLDTWTLK [MEF2D]	0.219	0.0539
MGSAKSVPVTPARPPPHNKHLARVADPRSPSAGILRTPIQVESSPQPGLPAGEQLEGLKHAQDSDPRSPTLGIARTPMKTSSGDPPSPLVKQLSEVFETEDSKSNLPPEPVLPPEAPLSSELDLPLGTQLSVEEQMPPWNQTEFPSKQVFSKEEARQPTETPVASQSSDKPSRDPETPRSSGSMRNRWKPNSSKVLGRSPLTILQDDNSPGTLTLRQGKRPSPLSENVSELKEGAILGTGRLLKTGGRAWEQGQDHDKENQHFPLVES [CDCA3]	-0.032	0.957
MGSILSRRIAGVEDIDIQANSAYRYPPKSGNYFASHFFMGGEKFDTPHPEGYLFGENMDLNFLGSRPVQFPYVTPAPHEPVKTLRSLVNIRKDSLRLVRYKDDADSPTEDGDKPRVLYSLEFTFDADARVAITIYCQASEEFLNGRAVYSPKSPSLQSETVHYKRGVSQQFSLPSFKIDFSEWKDDELNFDLDRGVFPVVIQAVVDEGDVVEVTGHAHVLLAAFEKHMDGSFSVKPLKQKQIVDRVSYLLQEIYGIENKNNQETKPSDDENSDNSNECVVCLSDLRDTLILPCRHLCLCTSCADTLRYQANNCPICRLPFRALLQIRAVRKKPGALSPVSFSPVLAQSLEHDEHSCPFKKSKPHPASLASKKPKRETNSDSVPPGYEPISLLEALNGLRAVSPAIPSAPLYEEITYSGISDGLSQASCPLAAIDHILDSSRQKGRPQSKAPDSTLRSPSSPIHEEDEEKLSEDVDAPPPLGGAELALRESSSPESFITEEVDESSSPQQGTRAASIENVLQDSSPEHCGRGPPADIYLPALGPDSCSVGIDE [MGRN1]	-0.00834	0.156
MGSRPPCGATSSARRACQFPAPMAAAREPELPQEAPATEPAPPPACRFFLEGRCRFGARCRQPHPGAPAPPGREAQPEAGAKKPPLRTAADVIQRIRWDPRLDPADFSVGYVDRFLGVREEPFSAFCWDQPLAALGPGVLAVPQHRVRFFRFHGRLVWDRASRTDLVFGSGSAAGRGPTILDAPNTEGAHGAEGAEWTLAGTGQEAQAAPKRGSTRPLCTGHQEPGVEEPGELEAAQERALGTAADLGTLAPRGRLAGVTEEALKPTAATRTTLLGGKEAQALGVPGGSAETTEAEWGPAAWPEDKRARLSVAAPCQPRPTHFVALMVTEPGLQAEVTKAQEYLVHVAPHCANFLVPSQNLHLTLALLRLAGAGEEAAAIGALRRALLAPGLNAPPRLSFRKLVLLGPHVLCAPPSPTLESMAQVLSQRLEAEGLSTLQSPGQLHPHLTVAKVPHGSQVHLPKLEFTLSQEVGCQPLQTLWLCRIGRTGGPFQPLAEIRLE [LENG9]	0.366	-0.034
MGTIHLFRKPQRSFFGKLLREFRLVAADRRSWKILLFGVINLICTGFLLMWCSSTNSIALTAYTYLTIFDLFSLMTCLISYWVTLRKPSPVYSFGFERLEVLAVFASTVLAQLGALFILKESAERFLEQPEIHTGRLLVGTFVALCFNLFTMLSIRNKPFAYVSEAASTSWLQEHVADLSRSLCGIIPGLSSIFLPRMNPFVLIDLAGAFALCITYMLIEINNYFAVDTASAIAIALMTFGTMYPMSVYSGKVLLQTTPPHVIGQLDKLIREVSTLDGVLEVRNEHFWTLGFGSLAGSVHVRIRRDANEQMVLAHVTNRLYTLVSTLTVQIFKDDWIRPALLSGPVAANVLNFSDHHVIPMPLLKGTDDLNPVTSTPAKPSSPPPEFSFNTPGKNVNPVILLNTQTRPYGFGLNHGHTPYSSMLNQGLGVPGIGATQGLRTGFTNIPSRYGTNNRIGQPRP [SLC30A6]	-0.097	-0.0121

From the supplement of paper PMC5998384
